pEC50: −log10 of the molar value. Where “and” joins values, the source holds several entries; their conditions need not be identical. Equal values may be shown once.
Tests used:
[1] = target: DcR3 (TNFRSF6B) (UniProt O95407); test: ELISA; TL1A variants on DcR3; who was immobilised is not told for DcR3; triplicate
[2] = target: Recombinant DR3-Fc (UniProt Q93038); test: ELISA; DR3-Fc immobilised non-specifically on Maxisorp plates (overnight, 4 °C), casein block; TL1A added in 3-fold dilutions, overnight 4 °C; bound TL1A detected with polyclonal rabbit anti-human TL1A-biotin and streptavidin-HRP; concentrations normalised to TL1A trimers; triplicate
[3] = target: Recombinant DR3-Fc (UniProt Q93038); test: ELISA; receptor (DR3-Fc; DcR3) immobilised on Maxisorp plates, TL1A variant titrated in 3-fold dilutions, overnight 4 °C, detected with anti-human TL1A-biotin and streptavidin-HRP; concentrations normalised to TL1A trimer; triplicate
[4] = target: DcR3 (UniProt O95407); test: as above
[5] = target: mouse DR3 (mouse)
[6] = target: Fc-scTL1A (TL1W14) (human) (UniProt O95150); test: SEC-MALS; Waters BEH SEC column, 25 °C, PBS pH 7.4, 5 µg of sample
[7] = target: Fc-scTL1A (TL1W14) (human) (UniProt O95150); test: ELISA; reversed format: TL1A molecules immobilised, DR3 titrated
Target sequence in this assay (O95150 other isoform, or with tags, fused parts or gaps): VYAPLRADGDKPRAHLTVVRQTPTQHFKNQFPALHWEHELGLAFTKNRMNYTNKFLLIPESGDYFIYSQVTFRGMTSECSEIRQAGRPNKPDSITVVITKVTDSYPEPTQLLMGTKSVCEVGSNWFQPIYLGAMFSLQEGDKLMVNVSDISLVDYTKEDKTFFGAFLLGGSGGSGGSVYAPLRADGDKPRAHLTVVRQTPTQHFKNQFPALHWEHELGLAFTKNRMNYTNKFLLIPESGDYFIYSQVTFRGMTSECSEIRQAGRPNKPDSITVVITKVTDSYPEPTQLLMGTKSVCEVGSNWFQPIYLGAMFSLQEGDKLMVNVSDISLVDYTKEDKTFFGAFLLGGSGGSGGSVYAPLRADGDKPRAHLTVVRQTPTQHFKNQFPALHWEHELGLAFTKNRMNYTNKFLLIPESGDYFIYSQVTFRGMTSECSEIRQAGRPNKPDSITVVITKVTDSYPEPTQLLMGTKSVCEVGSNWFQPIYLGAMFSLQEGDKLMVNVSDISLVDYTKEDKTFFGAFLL

[8] = target: HSA-scTL1A (TL1W15) (human) (UniProt O95150); test: as above
Chain of HSA-scTL1A (TL1W15) (human) (O95150 other isoform, or with tags, fused parts or gaps): as above

Chain of DcR3 (TNFRSF6B) (O95407 30-300): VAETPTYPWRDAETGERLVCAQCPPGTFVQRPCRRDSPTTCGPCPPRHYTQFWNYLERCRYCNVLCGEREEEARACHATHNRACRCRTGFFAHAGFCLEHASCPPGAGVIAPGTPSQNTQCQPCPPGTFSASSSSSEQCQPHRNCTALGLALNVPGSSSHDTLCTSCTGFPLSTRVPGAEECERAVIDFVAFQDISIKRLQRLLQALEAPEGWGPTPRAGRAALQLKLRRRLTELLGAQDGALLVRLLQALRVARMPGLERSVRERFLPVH
Chain of DcR3 (O95407 30-300): as above
Chain of Recombinant DR3-Fc (Q93038 25-199): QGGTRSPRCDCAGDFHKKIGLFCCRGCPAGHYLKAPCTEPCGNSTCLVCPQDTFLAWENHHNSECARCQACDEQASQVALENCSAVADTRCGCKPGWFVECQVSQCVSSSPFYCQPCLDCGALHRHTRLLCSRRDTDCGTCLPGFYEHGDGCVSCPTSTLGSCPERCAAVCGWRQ

Substance | pEC50 [1] | pEC50 [2] | pEC50 [3] | pEC50 [4] | IFNg in C57BL/6 mice 6 h after Fc-scTL1A (i.p.) with anti-CD3 antibody (i.v.) [5] [pg/mL] | stoichiometry N [6] | pEC50 [7] | pEC50 [8]
TL1W38 (L123K) (from UniProt O95150 1-251) (ligand) | 7.61 | 7.53 | 7.53 | – | – | – | – | –
Recombinant DR3-Fc (from UniProt Q93038 25-199) (Fc fusion) | – | – | – | – | – | – | 8.82 | 8.42
TL1W92 (M158Y) (from UniProt O95150 1-251) (ligand) | 7.16 | 7.78 | – | 7.90 | – | – | – | –
TL1W95 (Q167A) (from UniProt O95150 1-251) (ligand) | 6.75 | 7.77 | – | 7.49 | – | – | – | –
TL1W109 (S187L) (from UniProt O95150 1-251) (ligand) | 7.07 | 7.75 | – | 7.81 | – | – | – | –

Continued, values first:

pEC50 [1] | pEC50 [2] | pEC50 [3] | pEC50 [4] | IFNg in C57BL/6 mice 6 h after Fc-scTL1A (i.p.) with anti-CD3 antibody (i.v.) [5] [pg/mL] | stoichiometry N [6] | pEC50 [7] | pEC50 [8] | Substance
7.67 | 7.50 | – | – | – | – | – | – | TL1W45 (E190F) (from UniProt O95150 1-251) (ligand)
7.05 | 7.52 | – | 7.79 | – | – | – | – | TL1W80 (K111A) (from UniProt O95150 1-251) (ligand)
8.19 | 8.01 | 7.58 | – | 750 | 2 and 4 | – | – | Fc-scTL1A (TL1W14) (from UniProt O95150 84-251; O95150 84-251; O95150 84-251) (Fc fusion)
7.23 | 7.52 | – | 7.97 | – | – | – | – | TL1W122 (N207F) (from UniProt O95150 1-251) (ligand)

Reference: PMC9709071
